Assay results as given in article doi:10.1101/2021.12.08.471876 (bioRxiv, 2021).

B1: pep56 (peptide)
peptide: DPAFGANSL
B2: pep59 (peptide)
peptide: QGIMQTVPAN
B3: GST-preS1 truncated protein preS1-p2 (residues 25-90) (domain or fragment)
chain: FPDHQLDPAFGANSNNPDWDFNPNKDHWPEANQVGAGAFGPGFTPPHGGLLGWSPQAQGILTTLPA
B4: GST-preS1 truncated protein preS1-p3 (residues 66-119) (domain or fragment)
chain: GFTPPHGGLLGWSPQAQGILTTLPAAPPPASTNRQSGRQPTPISPPLRDSHPQA

How the values were obtained:
[1] = target: T1, purified recombinant GRP78 protein (GRP78-His) (human, UniProt P11021 19-654, NT-647 fluorescent label (in the MST only)); experiment: ITC
T1 sequence (P11021 19-654): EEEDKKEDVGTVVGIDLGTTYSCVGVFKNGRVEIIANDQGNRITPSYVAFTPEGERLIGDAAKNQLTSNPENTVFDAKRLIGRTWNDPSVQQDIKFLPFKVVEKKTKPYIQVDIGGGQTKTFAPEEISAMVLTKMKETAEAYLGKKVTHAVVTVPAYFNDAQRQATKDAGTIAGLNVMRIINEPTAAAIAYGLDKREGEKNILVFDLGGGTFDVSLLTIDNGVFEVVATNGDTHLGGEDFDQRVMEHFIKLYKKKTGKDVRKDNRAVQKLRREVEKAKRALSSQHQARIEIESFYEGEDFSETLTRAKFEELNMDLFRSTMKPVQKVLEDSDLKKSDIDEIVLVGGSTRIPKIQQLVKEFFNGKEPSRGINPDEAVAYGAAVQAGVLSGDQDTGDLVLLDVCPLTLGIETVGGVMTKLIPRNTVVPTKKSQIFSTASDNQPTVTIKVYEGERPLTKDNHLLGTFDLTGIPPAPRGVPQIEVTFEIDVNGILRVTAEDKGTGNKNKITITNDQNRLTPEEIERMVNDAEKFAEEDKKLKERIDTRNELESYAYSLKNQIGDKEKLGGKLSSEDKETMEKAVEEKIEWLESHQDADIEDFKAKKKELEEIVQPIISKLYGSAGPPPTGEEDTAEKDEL

[2] = target: T1, purified recombinant GRP78 protein …; experiment: MST

| Binder | Kd [1] [nM] | Kd [2] [nM] |
| --- | --- | --- |
| B1 | 6.59 |  |
| B2 | 10.6 |  |
| B3 |  | 1200 |
| B4 |  | 431 |
